Assay: soluble on expression in E. coli; label from the status in PepcDB or PDB records

Soluble on expression in E. coli, not soluble:
MGSDKIHHHHHHMSWEISGTYVGSCTCQLICPCPVDGLPTGPDGECRGLNVFHIASGKMDDTDLSGVDFAFANWFPSHLTAGGWKVGAVVDDAASDAQVRALGSILRGEAGGPFGDLAALYGEWLGLERAGVKFSGGDTPAGSVADRVVITFEPLPGPDGGVTTVKNAMYGFAPEFQIGKGTGHPDLFGLAFDGVYGETSDFSFASEMAEGAPKGRG
MGSDKIHHHHHHMSYSLQKSMVAKVVGLSLVMLLAACSSDQRYKRQVSGDESYLKAPAQHVLNTPAGMILPVQNGDFDIPPVTLNGAVGKELDIRPPVQPLALLNGSRTQTSGDTATLLLENSAQNSQIWSQVIRVLQDNAFTIANRQDASQTLTTDWISWPREDENVPYQGRYQISVQQQGYQVALIVKLLGLQLNGQPVTTSDQTQRYAGLMLNVLSNGLDSQATARENALANRTIGSLDVQSGADDTGLPLLIVRGPYTVVWDRLPVALDKIGMKVNDRSRPQGSVSVTYRAPSGGTWDDLGAKNPELPNGDYKLQVGDLDNRSSLQFIDSKGHTLTQSQNDALVAVFQAAFSK
MGSDKIHHHHHHMTAELLRLLENVLRVGVVTEIDVDEWRVRVSAGGLHTDWLRWDALRAGSFSVWIPPSVGEQVLLGCIGGNPETAVIIGSIYSAANPAPGSSSSELVIKAPDGATVRYDAAAGALEASGMKTARIVASVGVTLETPVVECTEHLVAKTFSFTEGGTMKGDVNHTGGAFKSNGVQADEHSHGNVLNGPGWSDGTR
MGSDKIHHHHHHMTATTATAPTMRGGGRNELPPHLDDNLLTPRFYTTEFDKAAKTDLDIARKDFEAMFKEMEADYNLKHFDRKASLERLSELSPEDKAIYESYLVRSVVSEFSGFLLFKEISNRFKKAGRQELGQFFTFLARDEARHAGFLGRALKAEGINVDLPNLGNKRAATFFPLSWVLYSLYLSEKIGYWRYILINRHLNDNPEKVCAPLFDFFEPWCQDENRHGDCINLMMRCWPGMTKGFRGKLLSRFFLWSVFLTHTLTVCERGDFYGLLGIDPVLFDEEVIIQTNNTSRNAFPWVYNFDDGKFLEMRVQILKAFRNWRESSGLAKPVALSKFVSLILRQFALPMQKTNAVRYG
MGSDKIHHHHHHMTCAFARTVESRFAELTPTAKRIASYMLANLDRLGLETADQIAQQTGTSGISVGRFLRSVGYRNLDDLKRELRGGADRPWMITDRLDEYRRTNGTNGTAGTQAAAIHSDDRALASSLDRELDAIRHVYRLAEEPVFAQVADRIAHADAVFILGIQSTRGISNAFSSYLEYLRPRVFYSDGQSGSYVDSLNSEFERPYCIVTDVRAYSRSARRYCQAAAERGQPFALVTDLYCPWAREWPADLLQVKTDVGQFWDSLAPLTCLFNLLITAVVDRLGPAIDRRVARNRELQHTFDQFES
MGSDKIHHHHHHMTDPFFLSDSGLLESYRAPKWLPGGNAQTIFPYFINLSPIISYRRERWEMDDGDFIDIDWLDGESDKPLVIMLHGLEGSSQSHYALSLMNLLQMLRWRGAVVHFRGCSGYSNRLPRAYHAGDSMEIDRMLRHIAHRNDSHEWNTPCYVVGVSLGGNALLKWLGEQGAQAARQIAGVVAVSVPLDLAAAGKVLDSGFNRVYTHHFLTTLKRKALEKNRQFPGLLNARAVAACRSLYEFDNLVTAPLHGFRDTDDYWRQSSSKPWLGSVQVPTLLINARNDPFLPESVLPQKSEVSSFVSLEFPQQGGHVGFIQGTFPGKLDWLPQRIIEFFSSLCGLDAIPG
MGSDKIHHHHHHMTDPRTTAFNGRVAHASLKGEIEAERYSEGRWMMVQQPIANILDKPRGARTSQLVFGERFLVLDTEDGFSFGQAERDGYVGYILSGALTGAEPATHWVISPATHLYPKAELKVPPDVCLYFGSQVKVTGEKDDFKRIHTGHFMPSQHLMPIKARFRDSVGIADLFLGTPYLWGGTSRWGIDCSGLVQACLLACGVECPRDTDQQEAALGEEIPSDEALKRGDLIFWKGHVGMMASDRMLLHANAHHMSTAYEPLKDAAARIEAKEYGPITSRKRIAMG
MGSDKIHHHHHHMTDVAKFGISRLDELLGGGLDRYTENLIIGRSGIGKTILAAHWAAEGARNDETVVYLSTTMNKKNCKAYLGRFPFMEDVYDKIKWRFIRVDPKFVLPLTREKIVEGLRATFGMDGKDIDRVVFDSCTDLELALADPVLYRRALTYMSDLSYDYEITSLWIEEAPMQGDWSSTKNIVDSVIFLNLLRTQEGYQRAMRILKKYRTRVPLEWIPYEITDEGVVIKDGYIVKRSYDYEYKRG
MGSDKIHHHHHHMTEITTLSQFLTTAKTQFQVYDLGRRVQHIDMLAFHQIESLATPYPYPIQGHAQFAIVFWDASQQHFIWFLKLALDEQGLLSPAPRSQFIEMVLSALGQDPTQPLSNEQQEHLANNPFSFTPSQEKLAVFNALVRKQLGQHASVQYEFAMQYLSGQIAPSQWQHIGIQGIADVCVRANELDHEAKLLTSFDSAAIEVQIALCQCLEHVQISPLLANKILNKLTAAEPEHKAYFLRALASNSELSQKALAHLHQGSNLDANTLISIAGRNWTVLKQELSRSIYLEALALQPQTFFNQIFADIVAIPSLRNLLLGELRNPNRSIQLSQAIGGLFKAASK
MGSDKIHHHHHHMTEIYEKYAHAAERMLHFVETRTTDQASSTMRVPVADYLDQGRFDLEIDRIFKRLPLMLALTIELPEVNDYKAMDVMGLPVLITRGRDGKARAFLNVCKHRAMHLAKEGKGNCKAFACQYHGWTYANDGKLMGIAEASTFGDVDRSTLNMTELPCDEAAGLIFVILTPGLPINAVEWMGGMYEDFAALKLETWYYHKSKAMKGANWKVAYDGYLEGYHFQAAHTNTVATRSPSNRASYEGFGPHIRLGFPQNTITRLHELPRDEWGRQENKGYDFIRMLFPNMSFFLAPEMGQLAQLFPGPQANQNTTVMNYIFPVKPETEEGLAALDQMCDFFFDVVEEEDYFLGLKVQNGLESGAMTHQTFGRNEPGNQFFHKWVAYYLDESGQTPMPVMKE
MGSDKIHHHHHHMTENKLIIGTAPDSWGVWFADDPKQTPWERFLDEVAESGYKWIELGPYGYLPNNPARLAEELKQRDLKVTAGTVFTAFHRGLDEWETAWEPARKVAELTAAMGGEHIVVIPAMWRDDVTGEAVESGQLTEKAWSDLFAGHNRLGKTLLEDFGLKQQFHSHADSHVGAQEDIESLLAATDSKYLNLCLDTGHAEYCGASSLELIKNYPDRIGYLHLKQINPDILKKVNEENMTWAAANLAGVMTEPPNGLPDLRAVIEAVEALNRPIFGIVEQDMYPVAFDVPMPIAKRTRNYLLSCGSRTAVN
MGSDKIHHHHHHMTEQITEIDTLVVGAGQAGVAMSEHLTRLDIPHLVLEKQGIAQAWRSGRWDSLVANGPAWHDRFPGMVFPDCPPDSFVGKEQVADYFAAYARSFNAPIRTGVEVYSAERLAGRPGFRIDTSQGVIEAQRIVAATGPFQRPVIPAIAPQSPAIQQLHSAHYFNPQQLPEGGVLVIGAGSSGVQIADELQRAGRAVWLSVGAHDRPPRRYRQRDFCWWLGVLGMWDAAANAPGKEHVTIAVSGARGGHTVDFRQLAHQGVTLVGQTRGFDGDKALFHPDLAENIRRGDASYLALLDAADAWVARNGMDLPEEPSAREFLPDPACVTDPLLSLNLAEAGIGTIIWATGYTTDYRWLKVNAFDDAQRPQHHRGVSTEPGVYFLGLPWLSRRGSTFIWGVWHDAKYIADQIAIQRQYQRYQPSC
MGSDKIHHHHHHMTETTLPPLIQQMLQPGFYPHEVTEPIQLIQTHVSSVLLTGEYAYKLKKPVNFGFLDFSTLEKRQHFCQEELRLNQRGAAELYLEVLPISLVGEQYTLGGTGEAVEYVLKMRQFPQDGLFSELFAQGKLTESHLEELGKVVAQYHAKTETNDYIRSFGEVPQVQAAFDENYQQTEKYIGGPQTQLQFDETKAYTERFFAEKQELFQRRIQNNYIRECHGDLHLRNICLWQDKILLFDCIEFNEPFRFVDVMFDVAYAVMDLDAQQRPDLSNAYLNTYLEQTGDWEGLEVLPIYLNRQSYVRAKVTSFLLDDPSVPATVKEEATKTASTYYKLAWEYTKPKQGKLILMSGLSGSGKSTTAKYLARQLDAIQIRSDAVRKHLGGISLWERGGDDLYTPEMTQKTYARLLNLGTILANQGYTVILDAKYDKQNLRQEAIAQAEKHHLPLQIIHCTAPIEVIQERLIKRTGDIADATVDLLSSQLQQTEPFTDQEKPYVQTWDTTQPPHVIGNR
MGSDKIHHHHHHMTFDEYEVAINSEFTLQGTLTKPKAGGKYAAVIIIAGSGEIDRDGTILPLKLESNIYKDLAHVMAKLGVVTLRFDKRGVGKSDGEFLKTGMWDLVNDIESTITYLKEQPFVDPENIILAGHSEGCMLATVVNARTPVNGLILLTGAAESLEEATKRQREIAYKELKEQKGIKGKLMRLLDVEKRGEKQMEKIKEKMMNTEKDTIKVGFKPMNAKWFREHFQHDIYKDLQQVTCPVLAIAGDKDFQANPEKAKRIGDYVQGDSEVHVIKDMDHSLKSFEGDFKALEFKKNYEEGAGKPLHPMLEEIIMNWISTNFILHKIPVSTLSEYEGDGKESNCL
MGSDKIHHHHHHMTFLFFQPSSNIIKPYALMDLDDTLFQTQRKIDAWELPTTEPENLVCATVNKQGEPLSFMSQRQAAFFNWLLASTELIAVTARDRLEIKRVKLLFNSWQVLTHGAVILTSDGEPLSTWQQHMYNALIPLQDKINQLTEWVNSYSKESDRTHNDLKLTPHTDTFIDSELTIYLAIKHTQKDHQALAELATQLPTLIPDFDAHFYVHVNANNLAILPHAVHKRHAVQFLLEQHLDHQRPSFGFGDSLADLPFLQLLDWYGMPNHGQLHTQQ
MGSDKIHHHHHHMTGRRCERTTSPGTGGRLRAEPADFQVQEVPAYLPGGSGEYLYLHVEKTRHTTAHVVRELCAQLGVRDRDVGVAGLKDRHAVTTQWLSLPAKVEPRMGDFSLPGVRILETSRHTNKLGMGHLHGNRFVVRVRGAAGMAEQAGETLATLAQGGVPNYFGPQRFGLGGLNAEEGLRVLRGESELRDPRVRRFLTSSVQSAIFNALVSLRLEREVFDRLLTGDMAKKHDTGGVFLVEDAGAETPRAQRGEVSATGTLFGRKVKPLTADAGALEAEALALFGLSPQVFASRKGDRRLIRVFPAEAEVRPEDDGYVLAFTLPKGSFATSVLREVMKTEVDAPGAGPDTTDEGEAGDGE
MGSDKIHHHHHHMTGSNKVIISCAVTGSIHTPTMTPYLPITSTEIANAATGAIDAGAAIVHLHARHPDDGRPDQTVGAFRPFIEHIKAHTDGIINLTTGGAPTMSVEERLQPALHLKPEIASLNMGSMNFGLFPMLNRYKEFKHEWERHYLEGTRDLVFRNTFKDIEYVLSSCTGNDTRFEFECYDTAHLYNLAHFLDRKLVTPPLFVQTVFGILGGIGSHADDVAHMKRTADRLFGSNYVWSVLGAGRAQMPVASIAAAQGGNVRVGIEDSIWNGPGQLAKANSDQVRRVRQILEGMGLAIATPDEARTLLHLKGRNNVAF
MGSDKIHHHHHHMTGTTENDNTGEDEKPKDEECAAIEHKDKFNPTAYLNSFYKTASEDTAMQIVLFFLPGILYRLPQKVRSVLDLGAGPTVYLPISLRDRAENIYTSDYAPANRDTLINWIEDKSDFDWDNVCSWIANIEASMETGKQMQNKTRKLMRAVLDVNVHESPVVQSIVWKENEQVQVPDKFQVVSTVFCLEYSCETLEAYFRAVRSACSLIDEGGILIQGGVLDATTYNFGGKTFRCHRLKQAHIIESLKANGMATTAEQGYKFITHDDIFLLVSKKL

From the DeepSol protein solubility set
